The target of the series is EcoSSB (Escherichia coli, UniProt P0AGE0). Description: EMSA; Complex I at low and Complex II at high SSB; 0.2, 2, 10 pmol tetramer, 1 pmol DNA; 20 mM Tris-HCl pH 8.0, 50 mM NaCl, 5% glycerol, 50 μg/ml BSA, 15 μl, 30 min at 4°C; 8% native PAGE in 1x TBE. As to conditions: protein: recombinant; chain copies: 4; label: 5' 32P; single strand. For orientation: In EMSA bound probe runs differently from free probe, usually more slowly.
Chain of EcoSSB (P0AGE0 whole entry): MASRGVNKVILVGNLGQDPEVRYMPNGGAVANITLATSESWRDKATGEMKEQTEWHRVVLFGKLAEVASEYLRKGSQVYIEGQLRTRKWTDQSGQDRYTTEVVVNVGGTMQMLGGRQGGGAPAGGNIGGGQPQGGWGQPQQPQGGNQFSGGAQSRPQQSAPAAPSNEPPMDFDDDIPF

B1: 79 mer ssDNA (ssDNA)
DNA: GCACTAGTGCGGATAGCCCCGTGTTGTTGTCTGACCCCCGACCCCGACGGCAATGCGGGGCAATCCCCTGGAGGCCTGC
B1: the binding result was “binds”.

(Values after article PMC3983218.)
